target: T1, VEGF165 (recombinant human vascular endothelial growth factor, 165 aa form) (Homo sapiens, UniProt P15692-4 P15692-4:27-191); experiment: filter; Kd1, X1 0.77, Kd2 10-100 nM; settings: tags: gift from N. Ferrara, Genentech; chain copies: 2 (dimer, stated)
T1 sequence (P15692 other isoform, or with tags, fused parts or gaps): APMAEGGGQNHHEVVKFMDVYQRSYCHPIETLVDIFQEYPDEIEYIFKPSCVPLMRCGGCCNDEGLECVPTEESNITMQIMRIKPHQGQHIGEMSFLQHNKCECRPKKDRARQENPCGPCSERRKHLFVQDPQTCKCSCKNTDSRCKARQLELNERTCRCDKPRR

| Binder | Kd |
| --- | --- |
| 30B (ssRNA, 2'-NH2 pyrimidines) RNA: GGGAGGACGAUGCGGCAUGGUUGUGAACUGUUGUGAUCAAUGCGGGGAGGGUAAUGGUGGGUGGUCAGACGACUCGCCCGA | 0.034 nM |

target: T1, VEGF165 (recombinant human vascular …); experiment: filter; settings: tags: gift from N. Ferrara, Genentech; chain copies: 2 (dimer, stated)

| Binder | Kd |
| --- | --- |
| ssDNA b95 (ssDNA) DNA: CTACCTACGATCTGACTAGCCCACTGCATAGAGAACTGGATCGACGGTCCAAAGTTCGGTGCTTAGCTTACTCTCATGTAGTTCCT | 0.9 nM |
| ssDNA b53 (ssDNA) DNA: CTACCTACGATCTGACTAGCGCAAGGGCATCTCGGAATCGGTTAATCTGACTTGCAATACGCTTAGCTTACTCTCATGTAGTTCCT | 2.5 nM |
| ssDNA b59 (ssDNA) DNA: CTACCTACGATCTGACTAGCAACACGAGCATGTGGGGTCCCTTCCGAATGGGGGGTACAGGCTTAGCTTACTCTCATGTAGTTCCT | 91 nM |
| ssDNA 1 (ssDNA) DNA: ATCCGCCTGATTAGCGATACTTCTGCGAGAGACCTACTGGAACGTTTTGTGATATTCACAACTTGAGCAAAATCACCTGCAGGGG | 12 nM |
| ssDNA b66 (ssDNA) DNA: CTACCTACGATCTGACTAGCAACACTTCCCCACTGGATAGAGGCCTTTCGCAGAGCCGGTGCTTAGCTTACTCTCATGTAGTTCCT | 1.3 nM |
| ssDNA b99 (ssDNA) DNA: CTACCTACGATCTGACTAGCCACGATAATCCTCCGAAAGCGTTGTCCGAATGGGTCGTTAGCTTAGCTTACTCTCATGTAGTTCCT | 34 nM |
| ssDNA 15 (ssDNA) DNA: ATCCGCCTGATTAGCGATACTACCGCTGTGTAGTTCCTTTAGGACTAGAGGGCCGCCTACACTTGAGCAAAATCACCTGCAGGGG | 0.88 nM |
| ssDNA 10 (ssDNA) DNA: ATCCGCCTGATTAGCGATACTGTACCATCCACGGTTTACGTGGACAAGAGGGCCCTGGTACACTTGAGCAAAATCACCTGCAGGGG | 1 nM |
| ssDNA 33 (ssDNA) DNA: ATCCGCCTGATTAGCGATACTTCAAGCACTCCCGTCTTCCAGACAAGAGTGCAGGGCCTCTACTTGAGCAAAATCACCTGCAGGGG | 2 nM |
| ssDNA b98 (ssDNA) DNA: CTACCTACGATCTGACTAGCGATCCACGAAGAAGCTTACTCTCATGTAGTTCCAGCTTACTCTCATGTAGTTCCT | > 100 nM |
| ssDNA b88 (ssDNA) DNA: CTACCTACGATCTGACTAGCGCAAGGGGTCCTGCCGAATGGGGGAATACGCTAGCCGAAAGCTTACTCTCATGTAGTTCCT | 34 nM |
| ssDNA b60 (ssDNA) DNA: CTACCTACGATCTGACTAGCCCACCGCAGAGTGTTACACCCCATAGGAGAAGTCCGGATGGCTTAGCTTACTCTCATGTAGTTCCT | 26 nM |
| ssDNA 23 (ssDNA) DNA: ATCCGCCTGATTAGCGATACTGGGCATCTAACCCAGACCTACCGGAACGTTATCGCTTGTGACTTGAGCAAAATCACCTGCAGGGG | 0.75 nM |
| GTACCATCCACGGTTTACGTGGACAAGAGGGCCCTGGTAC (ssDNA) [10t] | 5 nM |
| GTAGTTCCTTTAGGACTAGAGGGCCGCCTAC (ssDNA) [15t] | 3 nM |
| ssDNA b85 (ssDNA) DNA: CTACCTACGATCTGACTAGCGAGGAGGTGCGTTGTCCGAAGGGGTCGTTAGTCACCTCGTGCTTAGCTTACTCTCATGTAGTTCCT | 0.15 nM |
| AGGGCCACGTCTATTTAGACTAGAGTGCAGTGGTTC (ssDNA) [56t] | 0.2 nM |
| ssDNA b56 (ssDNA) DNA: CTACCTACGATCTGACTAGCGCAGGGCCACGTCTATTTAGACTAGAGTGCAGTGGTTCGCTTACTCTCATGTAGTTCCT | 0.5 nM |
| CGAGGTCCCCCACTGGATAGAGTTGTTGAAACAACGGTGCGCTTA (ssDNA) [65t] | 0.32 nM |
| AACACTTCCCCACTGGATAGAGGCCTTTCGCAGAGCCGGTGCTTA (ssDNA) [66t] | 0.35 nM |
| ssDNA b79 (ssDNA) DNA: CTACCTACGATCTGACTAGCGAGGCATTAGGTCCGAATGGTAGTAATGCTGTCGTGCCTTGCTTAGCTTACTCTCATGTAGTTCCT | 2 nM |
| GGAGGTGCGTTGTCCGAAGGGGTCGTTAGTCACCTC (ssDNA) [85t] | 0.3 nM |
| GCAAGGGGTCCTGCCGAATGGGGGAATACGCTAGCCGAAA (ssDNA) [88t] | 19 nM |
| ssDNA b80 (ssDNA) DNA: CTACCTACGATCTGACTAGCCCGTCGCGTGACTATAACCACACGCAGACTAGAGTGCAGGGCTTAGCTTACTCTCATGTAGTTCCT | 8.1 nM |
| ssDNA 6 (ssDNA) DNA: ATCCGCCTGATTAGCGATACTATACACCCGGCGGGCCTACCGGATCGTTGATTTCTCTCCACTTGAGCAAAATCACCTGCAGGGG | 1 nM |
| ssDNA b65 (ssDNA) DNA: CTACCTACGATCTGACTAGCCGAGGTCCCCCACTGGATAGAGTTGTTGAAACAACGGTGCGCTTAGCTTACTCTCATGTAGTTCCT | 0.53 nM |

target: T1, VEGF165 (recombinant human vascular …); experiment: inhibition; VEGF receptor binding; settings: tags: gift from N. Ferrara, Genentech; chain copies: 2 (dimer, stated)
Procedure: VEGF was radioiodinated by the Iodegen method (Jakeman et al. (1992) J. Clin. Invest. 89:244) to a specific activity of 2.4×10^4 cpm/ng. Human umbilical vein endothelial cells (HUVECs) were plated in 24-well plates at a density of 1–2×10^5 cells/well and grown to confluence in EGM (Clonetics, San Diego, Calif.) media (24–48 hrs). At confluence, the cells were washed 3 times with PBS and incubated for 2 hrs at 4° C. in α-MEM serum-free media containing ^125I-labeled VEGF with or without unlabeled competitor (VEGF, EGF, or RNA). For experiments done with RNA, 0.2 units of placental RNase inhibitor (Promega, Madison, Wis.) were included in the media. […] At the end of the 2 hr incubation period, the supernatant was removed and the wells washed 2 times with PBS. HUVECs were then lysed with 1% triton X-100/1M NaOH and the amount of cell-associated ^125I-VEGF determined by gamma counting.
(§1) To this end, certain ligands were synthesized and tested for binding affinity. The binding studies were performed using the protocols described in Example 1.

| Binder | Ki |
| --- | --- |
| TTTTACCCUGAUGGUAGACGCCGGGGUGTTTTT (mixed, 2'-NH2/2'-OMe variant (position code lost in text); 5' and 3' phosphorothioate thymidine caps) [NX-214] | 1 nM |
| TTTTACCCUGAUGGUAGACGCCGGGGUGTTTTT (mixed, as NX-213 plus internal phosphorothioate between A7 and U8) [NX-215] | 1 nM |
| TTTTACCCUGAUGGUAGACGCCGGGGUGTTTTT (mixed, 2'-NH2 pyrimidines; all purines 2'-OMe except four; 5' and 3' phosphorothioate thymidine caps) [NX-213] | 1 nM |
| TTTTACCCUGAUGGUAGACGCCGGGGUGTTTTT (mixed, all 2'-OMe core; 5' and 3' phosphorothioate thymidine caps) [NX-191] | 500 nM |
| TTTTACCCUGAUGGUAGACGCCGGGGUGTTTTT (mixed, 2'-NH2 pyrimidines; 5' T*T*T*T* and 3' T*T*T*T*T phosphorothioate thymidine caps) [NX-178] | 1 nM |
| ACCCUGAUGGUAGACGCCGGGGUG (ssRNA, modified variant of NX-107 (position code lost in text)) [NX-176] | 10 nM |

target: T1, VEGF165 (recombinant human vascular …); experiment: filter; clone listed in families 1 and 2; settings: tags: gift from N. Ferrara, Genentech; chain copies: 2 (dimer, stated)

| Binder | Kd |
| --- | --- |
| ssDNA b81 (ssDNA) DNA: CTACCTACGATCTGACTAGCCCGAATGGGGCTGCGACTGCAGTGGACGTCACGTCGTTAGCTTACTCTCATGTAGTTCCT | 0.3 nM |

target: T1, VEGF165 (recombinant human vascular …); experiment: filter; settings: tags: gift from N. Ferrara, Genentech; chain copies: 2 (dimer, stated); remark: another data set of the same source
Procedure: Internally-labeled RNA ligands used for binding studies were prepared by in vitro transcription using T7 RNA polymerase (Milligan et al. (1987) Nucl. Acids Res. 15:8783) and were purified on denaturing polyacrylamide gels to ensure size homogeneity. All RNA ligands were diluted to about 1 nM in PBS, denatured at 90° C. for 2 minutes, and then cooled on ice prior to incubation with the protein. This denaturation/renaturation cycle performed at high dilution is necessary to ensure that the RNA is essentially free from dimers and other higher order aggregates. Concentrations of the stock solutions of VEGF, from which other dilutions were made, were determined from the absorbance reading at 280 nm using the calculated value for ε280 of 46,600 M^-1cm^-1 for the VEGF dimer (Gill et al. (1989) Anal. Biochem. 182:319). Data sets that define the binding curves were fit to either eq. 2 or eq. 5 by the non-linear least squares method using the software package Kaleidagraph (Synergy Software, Reading, Pa.).
as §1

| Binder | Kd |
| --- | --- |
| TTTTACCCUGAUGGUAGACGCCGGGGUGTTTTT (mixed, 2'-NH2/2'-OMe variant (position code lost in text); 5' and 3' phosphorothioate thymidine caps) [NX-214] | 0.2 nM |
| TTTTACCCUGAUGGUAGACGCCGGGGUGTTTTT (mixed, as NX-213 plus internal phosphorothioate between A7 and U8) [NX-215] | 0.2 nM |
| TTTTACCCUGAUGGUAGACGCCGGGGUGTTTTT (mixed, 2'-NH2 pyrimidines; all purines 2'-OMe except four; 5' and 3' phosphorothioate thymidine caps) [NX-213] | 0.2 nM |
| TTTTACCCUGAUGGUAGACGCCGGGGUGTTTTT (mixed, all 2'-OMe core; 5' and 3' phosphorothioate thymidine caps) [NX-191] | 120 nM |
| TTTTACCCUGAUGGUAGACGCCGGGGUGTTTTT (mixed, 2'-NH2 pyrimidines; 5' T*T*T*T* and 3' T*T*T*T*T phosphorothioate thymidine caps) [NX-178] | 0.7 nM |
| ACCCUGAUGGUAGACGCCGGGGUG (ssRNA, modified variant of NX-107 (position code lost in text)) [NX-176] | 65 nM |

target: T1, VEGF165 (recombinant human vascular …); experiment: FP filter; nitrocellulose filter; Kd1, X1 0.62, Kd2 ~100 nM; settings: tags: gift from N. Ferrara, Genentech; chain copies: 2 (dimer, stated)

| Binder | Kd |
| --- | --- |
| 17B (ssRNA, 2'-NH2 pyrimidines) RNA: GGGAGGACGAUGCGGCGCUGUGUUCAAUGCGGGGAUCGGGCCGGAGGAUGAACAAAUGGCGGGUCAGACGACUCGCCCGA | 0.028 nM |

From US5811533, “High-affinity oligonucleotide ligands to vascular endothelial growth factor (VEGF)” (NeXstar Pharmaceuticals, Inc.)
